Data: US20230002481A1 (Chugai, published 2023)
One block for each binder: values may come before it.

Target: T1, recombinant human C1r2s2 tetramer (human, UniProt P09871 16-688; P00736 18-705)
T1 construct: Heterotetramer of two C1r and two C1s chains, co-expressed in FreeStyle293-F cells; also called human C1r2s2s
T1 chain 1: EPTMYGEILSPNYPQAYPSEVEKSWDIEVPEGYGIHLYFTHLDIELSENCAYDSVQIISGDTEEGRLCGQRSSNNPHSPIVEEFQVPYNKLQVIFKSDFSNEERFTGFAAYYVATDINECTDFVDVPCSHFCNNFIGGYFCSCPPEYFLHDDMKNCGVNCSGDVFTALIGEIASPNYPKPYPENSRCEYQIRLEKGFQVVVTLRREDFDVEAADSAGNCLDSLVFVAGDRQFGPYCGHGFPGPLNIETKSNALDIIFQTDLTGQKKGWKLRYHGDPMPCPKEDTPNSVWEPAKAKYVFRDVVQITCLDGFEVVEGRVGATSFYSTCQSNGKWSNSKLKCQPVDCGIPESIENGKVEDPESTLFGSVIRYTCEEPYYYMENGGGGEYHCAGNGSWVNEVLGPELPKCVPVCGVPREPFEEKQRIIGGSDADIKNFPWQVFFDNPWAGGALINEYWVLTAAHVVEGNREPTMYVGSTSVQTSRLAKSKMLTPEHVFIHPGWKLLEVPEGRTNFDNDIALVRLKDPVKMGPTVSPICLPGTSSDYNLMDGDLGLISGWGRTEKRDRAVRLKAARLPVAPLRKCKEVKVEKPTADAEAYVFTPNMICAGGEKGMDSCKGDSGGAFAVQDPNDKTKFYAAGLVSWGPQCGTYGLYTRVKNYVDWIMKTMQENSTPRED
T1 chain 2: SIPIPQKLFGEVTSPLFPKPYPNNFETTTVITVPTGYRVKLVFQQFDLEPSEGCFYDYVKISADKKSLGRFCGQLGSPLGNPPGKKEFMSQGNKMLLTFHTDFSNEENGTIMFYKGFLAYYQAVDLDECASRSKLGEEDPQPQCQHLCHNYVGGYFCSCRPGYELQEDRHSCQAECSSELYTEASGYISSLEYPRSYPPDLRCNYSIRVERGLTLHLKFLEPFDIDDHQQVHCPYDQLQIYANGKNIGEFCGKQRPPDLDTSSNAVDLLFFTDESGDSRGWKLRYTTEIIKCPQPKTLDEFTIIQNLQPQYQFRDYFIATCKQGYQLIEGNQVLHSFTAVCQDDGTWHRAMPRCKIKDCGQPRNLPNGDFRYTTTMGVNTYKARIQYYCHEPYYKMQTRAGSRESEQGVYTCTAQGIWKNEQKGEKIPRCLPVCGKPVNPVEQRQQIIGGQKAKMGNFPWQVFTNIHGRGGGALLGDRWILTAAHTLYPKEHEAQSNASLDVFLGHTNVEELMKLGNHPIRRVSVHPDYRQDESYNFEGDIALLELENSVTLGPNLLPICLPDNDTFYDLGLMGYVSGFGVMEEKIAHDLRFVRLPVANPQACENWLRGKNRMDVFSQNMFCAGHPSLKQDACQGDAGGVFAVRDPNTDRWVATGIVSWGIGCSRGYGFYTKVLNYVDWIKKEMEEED
Test: SPR (Biacore), pH5.8*: dissociation at pH5.8 after association and dissociation at pH7.4, 37 C, Scrubber fit
Description: The kinetic parameters of anti-C1s antibodies against recombinant human C1s (as described in PCT/JP2018/042054), human C1r2s2, and cyno C1r2s2 His/Flag (also referred as cyno C1r2s2 in the Table and Figures) were assessed at pH7.4 and pH5.8, at 37 degrees C. using BIACORE (registered trademark) T200 instrument (GE Healthcare) or BIACORE 4000 (GE Healthcare). ProAG (Pierce) was immobilized onto a CM4 sensorchip using amine coupling kit (GE Healthcare) according to the recommended settings by GE Healthcare. Antibodies and analytes were diluted into the respective running buffers, ACES pH7.4 and pH5.8 (20 mM ACES, 150 mM NaCl, 1.2 mM CaCl₂, 1 mg/ml BSA, 1 mg/ml CMD, 0.05% Tween 20, 0.005 w/v % NaN₃). Each antibody was captured onto the sensor surface by ProA/G. Antibody capture levels were typically 100-200 resonance units (RU). Then, recombinant C1s was injected at concentrations of 25 and 50 nM followed by dissociation at pH7.4 and pH5.8. The surface was regenerated using 10 mM Glycine-HCl, pH1.5. Kinetic parameters at neutral pH conditions and acidic conditions were determined by fitting the sensorgrams with 1:1 binding model using BIACORE (registered trademark) T200 Evaluation software, version 2.0 (GE Healthcare) or BIACORE 4000 Evaluation software. The dissociation rate at pH5.8 (after dissociation at pH7.4, indicated as pH5.8* in TABLE 2) was determined by processing and fitting data using Scrubber 2.0 (BioLogic Software) curve fitting software. The association rate (ka), dissociation rate (kd), binding affinity (KD) at pH7.4 and pH5.8 condition, and dissociation rate (kd) at pH5.8* condition of the antibodies are listed in TABLE 2. Some kinetic parameters of COS0098pHv1 in acidic condition were not correctly calculated because of its weak binding response.
Also, to observe the cross-reactivity of anti-C1s antibodies against human C1r2s2 and cyno C1r2s2 (cyno C1r2s2 His/Flag), BIACORE (registered trademark) kinetics analysis was performed.

- koff: 0.000909 s⁻¹
B1: COS0098bb (antibody, V domains shown)
VH: QSVEESGGRLVTPGTPLTLTCTVSGFSLTKYTVSWVRQAPGKGLEWIGIINTGGSAYYATWAKGRFTFSKTSTTVDLQITSPTTEDTATYFCARGNGDTDYTNLWGPGTLVTVSS
VL: QVLTQTPSSVSEPVGGTVTINCQASENIYSALAWYQQKPGQPPKLLIYGASNLESGVPSRFKGSGSGTQFTLTISDLECADAATYYCQQYYFTSSTFGGGTKVEIK
notes: Anti-C1s rabbit antibody, parent of COS0098pHv1; the antibody was captured by ProA/G; also called anti-C1s antibody COS0098bb

- koff: 0.107 s⁻¹
B2: COS0098pHv1 (antibody, V domains shown)
VH: QVQLVQSGAEVKKPGSSVKVSCKASGHTFSKYTVSWIRQPPGKGLEWIGIINTGGSAYPATWAKGRVTITADESTSTAYMELSSLRSEDTAVYYCARGAGDTDYTNLWGQGTLVTVSS
VL: DIQMTQSPSSLSASVGDRVTITCQASENIYSALAWYQQKPGQPPKLLIYGASQLESGVPSRFSGSGSGTDFTLTISSLQPEDFATYYCQQYYFTSHTFGQGTKVEIK
notes: Humanized, optimized pH-dependent variant of COS0098bb
